# Measured values as given in paper PMC8294335 (Molecular Cell, 2021).
# B1: GFP-HCN4ΔC (rabbit HCN4 carrying an internal deletion from residues 783 to 1064, with N-terminal decahistidine-eGFP tag) (natural protein)
# chain: MDKLPPSMRKRLYSLPQQVGAKAWIMDEEEDAEEEGAGGRQDPRRRSIRLRPLPSPSPSPSAAAAAAGGAESRGAALGGAADGEGPARGAAKSSTNGDCRRFRGSLASLGSRGGGGGGGSTGGGSHGHLHDSAEERRLIAEGDASPGEDRTPPGLAAEPERPGAPAPPAASPPQVPSSCGEQRPADAAVKVEGGAAAGDQILPEAEARLGQAGFMQRQFGAMLQPGVNKFSLRMFGSQKAVEREQERVKSAGFWIIHPYSDFRFYWDLTMLLLMVGNLIIIPVGITFFKDENTTPWIVFNVVSDTFFLIDLVLNFRTGIVVEDNTDIILDPRRIKMKYLKSWFVVDFVSSIPVDYIFLIVETRIDSEVYKTARALRIVRFTKILSLLRLLRLSRLIRYIHQWEEIFHMTYDLASAVVRIVNLIGMMLLLCHWDGCLQFLVPMLQDFPDDCWVSLNNMVNNSWGKQYSYALFKAMSHMLCIGYGRQAPMGMSDVWLTMLSMIVGATCYAMFIGHATALIQSLDSSRRQYQEKYKQVEQYMSFHKLPPDTRQRIHDYYEHRYQGKMFDEESILGELSEPLREEIINFNCRKLVASMPLFANADPNFVTSMLTKLRFEVFQPGDYIIREGTIGKKMYFIQHGVVSVLTKGNKETKLADGSYFGEICLLTRGRRTASVRADTYCRLYSLSVDNFNEVLEEYPMMRRAFETVALDRLDRIGKKNSILLHKVQHDLSSGVSNYQENAIVQRIVQHDREMAHCARRAQATTPVAPAIWTPLIQAPLQAAQDLKLISASQPALPQDGAQTLRRASPHSSSGESVAALPPFPRAPGRPPGAGPGQHVTLTLPRKASSGSLPPPLSLFGPRAAPAGGPRLTAAPQREPGAKSEPVRSKLPSNL
# Target: the molecule itself
# Test: cryo-EM structure
protein,measurement,value
B1,stoichiometry N,4
